T1: monkey GFRα3 expressed with a C-terminal myc-myc-hexahistidine tag (monkey (Mf), UniProt O60609 32-374 (human entry), limits assumed)
T1 construct: also called MfGFRα3-mmh; MfGFRα3-mmH
T1 chain: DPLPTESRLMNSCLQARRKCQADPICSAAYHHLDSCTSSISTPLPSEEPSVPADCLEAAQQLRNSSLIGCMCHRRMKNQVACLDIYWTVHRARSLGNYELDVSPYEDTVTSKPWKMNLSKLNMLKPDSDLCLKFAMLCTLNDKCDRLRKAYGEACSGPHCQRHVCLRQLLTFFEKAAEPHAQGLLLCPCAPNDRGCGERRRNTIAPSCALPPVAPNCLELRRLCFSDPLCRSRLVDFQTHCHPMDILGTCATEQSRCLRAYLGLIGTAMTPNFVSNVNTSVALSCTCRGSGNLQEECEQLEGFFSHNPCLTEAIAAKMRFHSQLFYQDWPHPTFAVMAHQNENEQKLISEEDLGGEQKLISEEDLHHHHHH

T2: human GFRα3 expressed with a C-terminal mFc tag (human)
T2 construct: also called hGFRα3-mFc
T2 chain: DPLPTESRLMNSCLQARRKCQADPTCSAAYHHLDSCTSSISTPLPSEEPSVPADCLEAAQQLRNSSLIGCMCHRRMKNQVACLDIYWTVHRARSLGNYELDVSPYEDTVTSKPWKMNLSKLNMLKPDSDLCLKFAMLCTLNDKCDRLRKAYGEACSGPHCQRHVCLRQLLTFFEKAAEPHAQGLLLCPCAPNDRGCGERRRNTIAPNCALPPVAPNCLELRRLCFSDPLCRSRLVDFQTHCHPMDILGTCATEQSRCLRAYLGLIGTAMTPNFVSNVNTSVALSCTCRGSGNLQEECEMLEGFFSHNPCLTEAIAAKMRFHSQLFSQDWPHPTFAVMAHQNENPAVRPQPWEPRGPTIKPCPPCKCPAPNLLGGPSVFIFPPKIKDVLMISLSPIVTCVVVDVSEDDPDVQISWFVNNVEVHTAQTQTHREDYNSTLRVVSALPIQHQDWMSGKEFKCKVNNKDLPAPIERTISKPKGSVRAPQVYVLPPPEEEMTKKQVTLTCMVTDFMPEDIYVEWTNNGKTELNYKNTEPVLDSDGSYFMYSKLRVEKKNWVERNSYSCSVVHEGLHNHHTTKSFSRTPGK


What was measured:
[1] = target: T3, human GFRα3 expressed with a C-terminal myc-myc-hexahistidine tag (human, UniProt O60609 32-374, biotinylated (sites not given) in ELISA format 2 and in the Octet cross-competition; not in SPR); assay: Octet cross-competition; biotin-hGFRα3-mmH pre-saturated with first antibody H4H2352S
T3 construct: also called hGFRα3-mmh; hGFRα3-mmH
Procedure: A cross-competition assay was conducted to assess the ability of select antibodies to compete with one another for binding to human GFRα3 using an Octet RED384 biosensor (Fortebio Inc.). The entire experiment was performed at 25° C. with the flow rate of 1000 rpm in Octet HBST buffer (0.01 M HEPES pH7.4, 0.15M NaCl, 3 mM EDTA, 0.05% v/v Surfactant P20, 0.1 mg/mL BSA). To assess whether 2 antibodies were able to compete with one another for binding to their respective epitopes on biotinylated recombinant human GFRα3 expressed with a C-terminal myc-myc-hexahistidine tag (biotin-hGFRα3-mmH; SEQ ID:370), around ˜1.2 nm of biotin-hGFRα3-mmH was first captured onto streptavidin-coated Octet sensor tips (Fortebio Inc, #18-5019) by submerging the tips for 1 minute into a 10 μg/mL solution of biotin-hGFRα3-mmH. The antigen coated sensor tips were then placed into wells containing 25 μg/mL solution of a first anti-GFRα3 monoclonal antibody for 4 minutes to saturate the biotin-hGFRα3-mmH surface. The sensor tips were then subsequently dipped into wells containing 25 μ/mL solution of a second anti-GFRα3 monoclonal antibody. The sensor tips were washed in Octet HBST buffer in between every step of the experiment. The real-time binding response was monitored during the course of the experiment and the binding response at the end of every step was recorded as shown in FIG. 9. The response of mAb-2 binding to biotin-hGFRα3-mmH pre-complexed with the first antibody was compared and competitive/non-competitive behavior of different anti-GFRα3 monoclonal antibodies was determined.

[2] = target: T1, monkey GFRα3 expressed with a …; assay: SPR, Ab captured, 37C
Procedure: (§1) Antibodies were tested for binding to human GFRα3 expressed with either a C-terminal myc-myc-hexahistidine tag (hGFRα3-mmh; SEQ ID: 370, a C-terminal hFc tag (hGFRα3-hFc; SEQ ID:371), or a C-terminal mFc tag (hGFRα3-mFc; SEQ ID:372), as well as monkey GFRα3 expressed with a C-terminal myc-myc-hexahistidine tag (MfGFRα3-mmh; SEQ ID:373). Anti-GFRα3 antibodies were captured on either a goat anti-mouse IgG polyclonal antibody (GE Healthcare, #BR-1008-38) or a mouse anti-human IgG monoclonal antibody (GE Healthcare, #BR-1008-39) surface created through direct amine coupling to a Biacore CM5 sensor chip. Kinetic experiments were carried out using HBS-EP (10 mM HEPES, 150 mM NaCl, 3 mM EDTA, 0.05% Surfactant P20, at pH 7.4) or PBS buffer containing 0.05% v/v surfactant P20 as both the running buffer and the sample buffer. Binding to human GFRα3-mmh or monkey GFRα3-mmh was evaluated by injecting several concentrations ranging from 200 to 7.4 nM (3-fold dilutions) across the captured antibody surface. Binding to human GFRα3-mFc or human GFRα3-hFc was evaluated by injecting several concentrations ranging from 100 to 3.7 nM (3-fold dilutions) across the captured antibody surface. Antibody-antigen association was monitored for up to 4 minutes, while dissociation in buffer was monitored for up to 20 minutes. Kinetic association (kₐ) and dissociation (kd) rate constants were determined by processing and fitting the data to a 1:1 binding model using Scrubber 2.0c curve fitting software. Binding dissociation equilibrium constants (KD) and dissociative half-lives (t_{1/2}) were calculated from the kinetic rate constants as: KD (M)=kd/kₐ and t_{1/2} (min)=[ln 2/(60*kd)].

[3] = target: T2, human GFRα3 expressed with a C-terminal …; assay: SPR, Ab captured, 37C
Procedure: as §1

[4] = target: T3, human GFRα3 expressed with a C-terminal …; assay: SPR, Ab captured, 37C
Procedure: as §1

binding response of second antibody (nm) [1] [nm]	Kd [2] [nM]	koff [2] [s⁻¹]	kon [2] [M⁻¹ s⁻¹]	t1/2 [2] [min]	Kd [3] [nM]	koff [3] [s⁻¹]	kon [3] [M⁻¹ s⁻¹]	t1/2 [3] [min]	Kd [4] [nM]	koff [4] [s⁻¹]	kon [4] [M⁻¹ s⁻¹]	t1/2 [4] [min]	Binder
0.05													H4H2212N (antibody, human IgG4, V domains shown, human IgG4 Fc (H4H)) VH: EVQLLESGGGLVQPGGSLRLSCAASGFTFSSYAMSWVRQGPGKGLEWVSGISGSGGSTYNADSVKGRFTISRDNSKNTLYLQMNSLRAEDTAVYYCAKDSGTYWYYFDYWGQGILVTVSS VL: not shown
	5.14	0.000861	168000	13	0.0328	4.14e-05	1.26e+06	279	0.809	0.000273	338000	42	H4H2364S (antibody, human IgG4, V domains shown, human IgG4 Fc (H4H)) VH: EVQLVESGGGLEQPGGSLRLSCAASGFTFSSYVMSWVRQVPGKGLEWVSVISGSGGSTYYADSVKGRFTISRDNSKNTLYLQMNSLRAEDTAVYYCAKPSSYSSSNFHYGMDVWGQGTTVTVSS VL: DIQMTQSPYSVSASVGDRVTITCRASQGISSWLAWYQQKPGRAPKLLIYAASSLQSGVPSRFSGSGSGTDFTLTISSLQPEDFATYYCQKTNSFPFTFGPGTKVEIK
2.15									0.382	0.000748	1.96e+06	15	H4H2236N3 (antibody, human IgG4, V domains shown, human IgG4 Fc (H4H)) VH: EVQLLESGGNLVQPGGSLRLSCAASGFTFSSYAMTWVRQAPGKGLEWVSTISGSGTSTYYADSVKGRFTISRDNSRDTVFLQMNSLRAEDTAVYYCSKPSALRFLHWLAMDVWGQGTLVTVSS VL: DIQMTQSPSSLSAFVGDRVTITCRASQDIRNYLDWFQQKPGKAPKSLIYAASNLQSGVPSRFGGSGSGTDFTLTINSLQPEDFVTYYCQQYNSYPPTFGGGTKVEIK
	3.57	0.000575	161000	20	0.0891	8.96e-05	1.01e+06	129	2.58	0.000724	280000	16	H4H2344S (antibody, human IgG4, V domains shown, human IgG4 Fc (H4H)) VH: EVQLVESGGGVVQPGRSLRLSCAASGFSFSDYVMHWVRQAPGKGLEWVASIWFDGSNEFYADSVKGRFTISRDNSKNTLFLQMNSLRAEDTAVYYCAKKGVLVATSAFDIWGQGTMVTVSS VL: DIQMTQSPSSLSASVGDRVTITCRASQSINNYLNWYHQKPGKAPKLLIYAASSLQSGVPSRFSGSGSGTDYTLTISSLQPEDFGNYYCQQSYRTSMYTFGQGTKVEIK
	2.78	0.000435	157000	27	0.0895	9.11e-05	1.02e+06	127	2.31	0.000649	281000	18	H4H2354S (antibody, human IgG4, V domains shown, human IgG4 Fc (H4H); also called H4H2354S-1) VH: QVQLVESGGGVVQPGRSLRLSCAASGFSFSDYVMHWVRQAPGKGLEWVASIWFDGSNEFYADSVKGRFTISRDNSKNTLFLQMNSLRAEDTAVYYCAKKGVLVATSAFDIWGQGTMVTVSS VL: DIQLTQSPSSLSASVGDRVTITCRASQSINNYLNWYHQKPGKAPKLLIYAASSLQSGVPSRFSGSGSGTDYTLTISSLQPEDFGNYYCQQSYRTSMYTFGQGTKVEIK
	3.34	0.000511	153000	23	0.0781	0.000137	1.75e+06	84	1.41	0.000589	419000	20	H4H2346S (antibody, human IgG4, V domains shown, human IgG4 Fc (H4H)) VH: QVQLVESGGGVVQPGRSLRLSCAASGFSFSDYVMHWVRQAPGKGLEWVASIWFDGSNEFYADSVKGRFTISRDNSKNTLFLQMNSLRAEDTAVYYCAKKGVLVATSAFDIWGQGTMVTVSS VL: EIVMTQSPSSLSASVGDRVTITCRASQSINNYLNWYHQKPGKAPKLLIYAASSLQSGVPSRFSGSGSGTDYTLTISSLQPEDFGNYYCQQSYRTSMYTFGQGTKVEIK
	0.358	0.000158	441000	73	0.0299	5.13e-05	1.71e+06	225	0.313	0.000244	781000	47	H4H2293P (antibody, human IgG4, V domains shown, human IgG4 Fc (H4H)) VH: QVQLVESGGGVVQPGRSLRLSCAASGFSFSDYVMHWVRQAPGKGLEWVASIWFDGSNELYADSVKGRFTISRDNSKNTLFLQMNSLRAEDTAVYYCAKKGVLVATSAFHIWGQGTMVTVSS VL: AIQMTQSPSSLSASVGDRVTITCRASQNINNYLNWYHQKPGKAPNLLIYAASSLQSGVPSRFSGSGSGTDYTLTISSLQPEDFGNYYCQQSYSTSMYTFGQGTKLEIK
	3.53	0.000508	144000	23	0.0789	7.58e-05	961000	152	2.98	0.000737	248000	16	H4H2341S (antibody, human IgG4, V domains shown, human IgG4 Fc (H4H)) VH: EVQLVESGAEVKKSGSSVKVSCKASGGTFSRYAISWVRQAPGQGLEWMGGIIPLFGTLNYAQKFQGRVTLTTDESTSTAYMELSSLRSEDTAVYYCAVFYYGSGSYRNWFDPWGQGTLVTVSS VL: not shown
	26.3	0.00353	134000	3	0.106	7.44e-05	700000	155	47.3	0.0087	184000	1	H4H2345S (antibody, human IgG4, V domains shown, human IgG4 Fc (H4H)) VH: EVQLVESGGGLVRPGRSLRLSCAASGFTFDNYAMHWVRQVPGKGLEWVSGITWNSVSLGYADSVKGRFTISRDNAQNSLYLQMNSLRTVDTALYYCAKDRWGGSYYFDFWGQGTLVTVSS VL: DIVMTQSPSSLSASVGDRVTITCRASQGISNYLAWYQQKPGKVPKLLIYSASTLQSGVPSRFSGSGSGTDFTLTISNLQPEDFATFFCQKYNSAPTFGGGTKVEIK
